Results from patent WO2011040973A2 (dated 2011).
Substitutions are numbered along the chain they refer to.

Legend:
[1] = target: T1, murine Fibroblast Activation Protein (FAP), expressed in HEK293 cells (mouse, UniProt P97321 1-761); test: serial dilutions of Fab on 293 muFAP+ cells
T1 construct: whole, on cells; Used on transfected HEK293 cells (flow cytometry) and as lysate of those cells coated on plates (ELISA); also called mouse FAP; muFAP
T1 sequence (looked up): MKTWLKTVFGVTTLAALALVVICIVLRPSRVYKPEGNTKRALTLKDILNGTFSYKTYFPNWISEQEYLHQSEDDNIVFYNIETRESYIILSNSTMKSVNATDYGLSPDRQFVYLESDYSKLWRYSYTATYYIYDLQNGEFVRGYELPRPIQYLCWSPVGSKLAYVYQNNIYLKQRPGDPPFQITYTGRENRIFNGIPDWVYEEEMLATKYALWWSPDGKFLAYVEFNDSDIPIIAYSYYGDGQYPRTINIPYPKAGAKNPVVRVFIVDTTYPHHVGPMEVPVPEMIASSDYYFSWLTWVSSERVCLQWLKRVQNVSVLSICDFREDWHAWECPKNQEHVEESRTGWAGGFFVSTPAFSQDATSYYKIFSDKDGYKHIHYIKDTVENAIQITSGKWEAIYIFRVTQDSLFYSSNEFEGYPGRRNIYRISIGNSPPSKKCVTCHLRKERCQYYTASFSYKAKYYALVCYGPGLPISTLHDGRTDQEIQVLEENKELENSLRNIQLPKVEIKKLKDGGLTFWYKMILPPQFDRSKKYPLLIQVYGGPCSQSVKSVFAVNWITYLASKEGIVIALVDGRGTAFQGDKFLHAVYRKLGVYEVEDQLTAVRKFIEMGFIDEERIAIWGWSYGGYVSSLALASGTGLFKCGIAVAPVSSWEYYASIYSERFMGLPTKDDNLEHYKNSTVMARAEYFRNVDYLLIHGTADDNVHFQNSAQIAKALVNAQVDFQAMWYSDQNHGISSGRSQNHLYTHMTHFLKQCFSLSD

[2] = target: T2, huFAP coated on a surface plasmon resonance chip (human, UniProt Q12884 26-760, limits assumed); test: surface plasmon resonance, low-density huFAP coated chip
T2 construct: also called human FAP
T2 sequence (looked up): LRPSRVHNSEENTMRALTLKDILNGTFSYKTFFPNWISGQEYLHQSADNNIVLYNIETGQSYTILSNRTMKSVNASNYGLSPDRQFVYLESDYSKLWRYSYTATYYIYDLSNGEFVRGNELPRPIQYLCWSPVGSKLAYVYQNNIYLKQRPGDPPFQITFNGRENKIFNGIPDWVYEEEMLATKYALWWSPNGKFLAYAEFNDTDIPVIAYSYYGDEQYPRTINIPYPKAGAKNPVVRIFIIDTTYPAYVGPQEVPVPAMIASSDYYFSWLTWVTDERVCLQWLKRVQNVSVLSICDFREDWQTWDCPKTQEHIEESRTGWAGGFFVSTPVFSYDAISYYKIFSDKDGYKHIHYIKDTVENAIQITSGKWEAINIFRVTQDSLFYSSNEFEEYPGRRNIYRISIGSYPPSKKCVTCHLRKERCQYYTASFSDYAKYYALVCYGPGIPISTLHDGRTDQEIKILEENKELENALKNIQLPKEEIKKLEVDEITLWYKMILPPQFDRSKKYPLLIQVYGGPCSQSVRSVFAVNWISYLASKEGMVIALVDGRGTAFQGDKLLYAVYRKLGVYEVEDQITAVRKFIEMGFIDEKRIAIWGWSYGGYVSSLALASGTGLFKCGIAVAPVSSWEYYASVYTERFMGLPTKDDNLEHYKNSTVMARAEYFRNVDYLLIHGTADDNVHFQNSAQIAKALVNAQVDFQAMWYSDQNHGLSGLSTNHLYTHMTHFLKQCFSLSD

[3] = target: T3, human dipeptidyl peptidase IV (DPPIV, CD26), expressed in HEK293 cells (human, UniProt P27487 1-766); test: ELISA on cell-lysate-coated plates (HEK293 huCD26+), Fig. 3
T3 construct: whole, on cells; Used as lysate of transfected HEK293 cells coated on plates (ELISA), on the cells (flow cytometry screening) and as immunoprecipitate; also called huCD26; HEK293 huCD26+

[4] = target: T4, human Fibroblast Activation Protein (FAP), expressed in transfected cells (human, UniProt Q12884 1-760); test: binding to antigen expressing cell lines, apparent KD of bivalent IgG
T4 construct: whole, on cells; Used on transfected HT1080 / HEK293 cells (flow cytometry), as lysates of those cells coated on plates (ELISA) and as immunoprecipitate from their extracts; also called human FAP; huFAP
T4 sequence (looked up): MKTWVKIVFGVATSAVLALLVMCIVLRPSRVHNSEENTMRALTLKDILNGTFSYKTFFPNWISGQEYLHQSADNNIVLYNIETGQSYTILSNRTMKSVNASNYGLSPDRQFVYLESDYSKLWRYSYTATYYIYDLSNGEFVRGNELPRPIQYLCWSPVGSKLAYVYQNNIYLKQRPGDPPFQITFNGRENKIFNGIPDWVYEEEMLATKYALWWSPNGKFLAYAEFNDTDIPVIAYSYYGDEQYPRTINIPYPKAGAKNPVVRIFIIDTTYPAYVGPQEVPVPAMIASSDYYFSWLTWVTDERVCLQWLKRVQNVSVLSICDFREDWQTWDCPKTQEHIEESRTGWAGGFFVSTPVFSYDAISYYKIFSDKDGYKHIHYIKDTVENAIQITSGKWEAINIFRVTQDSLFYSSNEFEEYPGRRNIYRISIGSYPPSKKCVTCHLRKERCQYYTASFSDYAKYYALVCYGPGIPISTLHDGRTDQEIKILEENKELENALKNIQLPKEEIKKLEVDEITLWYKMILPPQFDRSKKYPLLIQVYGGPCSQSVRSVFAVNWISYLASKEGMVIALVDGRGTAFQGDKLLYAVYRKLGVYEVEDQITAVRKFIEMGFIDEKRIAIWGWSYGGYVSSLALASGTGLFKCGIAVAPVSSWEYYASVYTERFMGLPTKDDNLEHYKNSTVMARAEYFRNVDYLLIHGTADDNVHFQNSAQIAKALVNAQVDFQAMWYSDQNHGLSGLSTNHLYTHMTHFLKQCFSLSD

T3 sequence (P27487 whole entry): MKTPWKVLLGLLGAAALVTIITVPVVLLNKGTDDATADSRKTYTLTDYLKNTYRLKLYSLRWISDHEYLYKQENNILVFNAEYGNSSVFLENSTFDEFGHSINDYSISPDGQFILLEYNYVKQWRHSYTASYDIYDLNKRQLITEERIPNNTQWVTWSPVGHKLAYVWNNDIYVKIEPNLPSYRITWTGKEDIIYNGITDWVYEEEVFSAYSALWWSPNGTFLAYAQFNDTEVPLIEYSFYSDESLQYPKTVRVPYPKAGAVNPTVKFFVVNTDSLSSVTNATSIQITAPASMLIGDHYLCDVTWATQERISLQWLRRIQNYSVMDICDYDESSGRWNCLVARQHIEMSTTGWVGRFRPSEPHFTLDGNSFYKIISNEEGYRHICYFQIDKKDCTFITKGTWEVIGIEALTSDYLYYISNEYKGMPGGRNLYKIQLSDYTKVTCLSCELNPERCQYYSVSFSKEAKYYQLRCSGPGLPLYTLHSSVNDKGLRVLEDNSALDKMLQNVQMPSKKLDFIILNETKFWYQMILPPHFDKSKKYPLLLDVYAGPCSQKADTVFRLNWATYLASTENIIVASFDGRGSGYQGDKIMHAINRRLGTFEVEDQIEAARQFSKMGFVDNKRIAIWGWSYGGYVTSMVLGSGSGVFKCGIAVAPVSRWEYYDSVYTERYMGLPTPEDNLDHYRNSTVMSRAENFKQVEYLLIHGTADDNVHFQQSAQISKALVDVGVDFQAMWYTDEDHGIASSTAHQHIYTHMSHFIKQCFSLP

B1: Fab ESC11 (Fab, V domains shown)
VH: HVQLQESGPGLVKPSETLSLTCTVSGGSISSNNYYWGWIRQTPGKGLEWIGSIYYSGSTNYNPSLKSRVTISVDTSKNQFSLKLSSVTAADTAVYYCARGARWQARPATRIDGVAFDIWGQGTMVTVSS
VL: ETTLTQSPGTLSLSPGERATLSCRASQTVTRNYLAWYQQKPGQAPRLLMYGASNRAAGVPDRFSGSGSGTDFTLTISRLEPEDFAVYYCQQFGSPYTFGQGTKVEIK
notes: Fully human Fab from a non-immunized phage library, made in E. coli TG-1, with myc tag and His tag
For B1, the Kd [1] was 51 nM, the Kd [2] was 10 nM and the binding result [3] was “no binding (tested: 100 nM)”.

B2: ESC11 IgG1 (antibody, V domains shown)
VH: B1 VH with H1Q
VL: B1 VL
notes: Variable domains cloned into a full human IgG1 format, made in NS0 cells; also called IgG1 antibody ESC11; ESC11 antibody
Binder B2 has a Kd [4] of ~1 nM.

B3: Fab ESC14 (Fab, V domains shown)
VH: EVQLVQSGAEVKKPGASVKVSCKASGYTFTSYGISWVRQAPGQGLEWMGWISAYNGNTNYAQKLQGRVTMTTDTSTSTAYMELRSLRSDDTAVYYCARDWSRSGYYLPDYWGQGTLVTVSS
VL: DVVMTQSPLSLPVTLGQPASISCRSSQSLLHSNGYNYLDWYLQRPGQSPHLLIFLGSNRASGVPDRFSGSGSGTDFTLKISRVEAEDVGIYYCMQALQTPPTFGQGTKVEIK
notes: as for B1
With B3 the Kd [1] was 251 nM, the Kd [2] was 210 nM and the binding result [3] was “no binding (tested: 100 nM)”.

B4: ESC14 IgG1 (antibody, V domains shown)
VH: B3 VH
VL: B3 VL
notes: Variable domains cloned into a full human IgG1 format, made in NS0 cells; also called IgG1 antibody ESC14; ESC14 antibody
With B4 the Kd [4] was ~1 nM.
